Test results published in the DeepSol protein solubility set.

Assay: soluble on expression in E. coli; label from the status in PepcDB or PDB records

| Sequence | soluble on expression in E. coli |
| --- | --- |
| MALNVIKISRVSLVTNSVEPLVLPLTFFDLLWLKLNPIERVTFYKLTESSRDSFFSSILPKLEQSLSLVLSHFLPLSGHLKWNPQDPKPHIVIFPKDTVSLTVVESEADFSYISSKELRLETELRPLVPELQVSSDSASLLSLQITLFPNQGFSIGTTVHHVVMDGKTASKFHKSWAHICKHGTTPQDFDLPTVLDRTVINVPAGLEQKIFQLSSYISEEKDYARTLTLPPAKEIDNDVVRVTLELTEVDIEKLKERAKNESTRSDLHLSTFVVSYAYVLTCMVKSCGGDANRPVRFMYAADFRNRLDPPVPLTYFGNCVLPIDFNGYKATTFLGKDGYVNGVEILSDSVRGLGSRNIESIWEVYEDGTKNMKLDTQNVTVTGSNQFGIYGSDFGWGRPVKTDVMSLYKNNEFSMSARRDEIGGLEIGISLKKCEMNVFLSLFTSDFDIYK | soluble |
| SVGTAGISLLLLWYHKVRKPGIAMKLPEFLSLGNTFNSITLQDEIHDDQGTTVIFQERQLQILEKLNELLTNMEELKEEIRFLKEAIPKLEEYIQDELGGKITVHKISPQHRARKRRLPTIQSSATSNSSEEAESEGGYITANTDTEEQSFPVPKAFNTRVEELNLDVLLQKVDHLRMSESGKSESFELLRDHKEKFRDEIEFMWRFARAYGDMYELSTNTQEKKHYANIGKTLSERAINRAPMNGHCHLWYAVLCGYVSEFEGLQNKINYGHLFKEHLDIAIKLLPEEPFLYYLKGRYCYTVSKLSWIEKKMAATLFGKIPSSTVQEALHNFLKAEELCPGYSNPNYMYLAKCYTDLEENQNALKFCNLALLLPTVTKEDKEAQKEMQKIMTSLKR | soluble |
| MAEQRFCVDYAKRGTAGCKKCKEKIVKGVCRIGKVVPNPFSESGGDMKEWYHIKCMFEKLERARATTKKIEDLTELEGWEELEDNEKEQITQHIADLSSKAAGTPKKKAVVQAKLTT | soluble |
| MSMSDIGGKDRLNDEKRVTVRLSRSMVEEMEDLVNRDEYESVSDLVRKAVSALLESRGVNSDFLPVQIMVPKNLIEKLGKDSTKPVNLSLDEFSSLILDRINGLTVRETIKKIVHEENIK | not soluble |
| MVLFSEDHIQETRRRGRIEVICGSMFSGKTEELIRRMKRAKFARQRVEIFKPAIDTRYSEEDVVSHDSHSIASTPIDSSASILLFTSEIDVVGIDEAQFFDDGLIDVCRQLANNGIRVIIAGLDMDFKGNPFGPMPQLCAIADEVSKVHAICVKCGDLASFSHRTVKNDKQVLLGETAEYEPLCRECYLRARGEDGQKI | not soluble |
| MPTDDKARPRKTLTIKKTAPAAPSADDEAPRRKRIGARARLVAQMERAKEQQHAPRRKAPRQDAAHQDDAPRRRPRAPREAEIFPVYAPCPQGIEEALAAEMQALGFEDARAGRAGCAFSTDWAGVQRANLYSRLATRILVQVAQADIGHEDDILDLARSVPWERWFGPDETLRVDTSAIKSPVKSLQYCNLRAKDGICDRLREVEGARPDIDTVRPDARVHLFLSGTTATLYLDTSGESLFKRGWRLDKGEAPLRENLAAGMLALAGWDPAEPLLDPFCGSGTILIEAAWIALGVPPGISRPFGFERLRNHDARRWQDLKADARTRIQTQLETPLFGYDLDPRAIQYAQANAERAWLTADTIRFEVGDARHLAAPADHGWIVTNPPYGERMETEDDSEMWRDWAACLKRQFAGWQVHVISSDMTLPQRLRLKPLRRVPLHNGALDCRLFGFELVPASYRKPA | not soluble |
| MSLSEDLRFFEFFAGGGMARAGLGNQWQCLFANDMDRIKASTYIQNWGKDHFDSRDIREVNSEDLERNGDLAWASFPCQDLSVAGNGLGIGSSSAKDFTRSGALWPFLDLIDTLRQEERQPPLLVLENVVGLLTLEGGRDFAAICERLGEIGYRYGAVIIDAKHFLPQSRPRVFIIAVQRNIDIPCKLSRGMATANWHTPTLLRAYKSLTPILHADWVWWELGDAPILQENALESFIQREGVLWNTPEETKRIISMMAPAHLARLENAKCAGGVAVGSLYLRMRREGGINKQRAEITFSPLLGCLRTPRGGASRPRIIVVESGHVRTRLLTICEAARLMGLANTYILPEIYHHAFKVIGDGVAVPAVRFLAERLLEPLAIAAEGHHHHHH | not soluble |
| MKKYLFAEQGFVEKPDFGADCWVCVETPDAEDMKFLIDTLNVPEDFLSDIADADERPRVEHDGDWHLTILRIPIESRLSGVPYVTVPMGIATRSDVTVSVCYHRAPMLADFLLHTRRKRIKVLNRTELVLRLIYSSAVWFLKYLKQINNEVTISERELERSIRNEDLIHLMMLQKTLVYFSTSIRGNEAVLGKIRASGENRIDEELVEDVRIELRQAYNTVNIYSDILSGTTEALSGVISNNLNTIMKR | not soluble |
| MDAEEIRAIFRFSAMEKNMIYSFGIQGDLFLPFLLSLKSGGSWSYATEETKSIAVKDVITYYDEESKTGYTLEKIYFFIDPEVVAKEGVVRRLEKCGTKEERELVERPYIIALRAKRIIFAEVNPGSRKITVRELEKKCIQLKGTPAYSAAHELEHLKKGEVEGIPLWSFEYVKDQ | not soluble |
| MGSDKIHHHHHHMDTKAFKRALHQSDRYNRKGFGKTTDVSGALESAYQSDLIQSLRQNGYRLQRGEITIRLAEAFGFCWGVERAVAIAYETRQHFPQERIWITNEIIHNPSVNQHLREMSVEFIPCERGEKDFSVVDRGDVVILPAFGASVQEMQLLDEKGCHIVDTTCPWVSKVWNTVEKHKRGAHTSIIHGKYNHEETVATSSFAETYLVVLNLEQAQYVCDYILNGGDRDEFMTRFGKACSAGFDPDRDLERIGIANQTTMLKSETEAIGKLFERTLLKKYGPQALNDHFLAFNTICDATQERQDAMFQLVEEPLDLIVVIGGFNSSNTTHLQEIAIERQIPSFHIDAAERIGPGNRIEHKPLHTDLTTTEPWLPAGPLTIGITSGASTPDKVVEDVIERLFDLQRS | not soluble |
| MSLAPALKAEILAQALPYIRKFHGKTIVIKYGGNAMTEEKLKHGFARDVILLKLVGMNPVVVHGGGPQIDDALKKVGKTGTFIQGMRVTDEETMEVVEWVLGGEVQQDIVMLINQYGGQAVGLTGKDGGLIRAKKLKMPDREQPGQFIDIGFVGDIETINPAVVRALQDDAFIPVISPIGFSDDGQAYNINADVVAGKMAEILKAEKLVMMTNIPGVMDKQGNLLTDLSAREIDELFADGTISGGMLPKISSALDAAKSGVNSVHIIDGRIEHSLLLEILTEQAFGTMIRSHEGHHHHHH | not soluble |
| MTVLQLPNIPRITLLGTTALLFEAPGELDLAPQQRIWALADLSKNWPQVREAVPGMNNLMLTFETPPRDLSGLKTRLMEAWEHCQPLPLQGRIIELPVVYGGDGGPHMADVIAHTGLDIETIANLHCEPLYPVYALGSHPGYCYLGGMDLRLATPRRKVPVLDIGAGSVSIGGVQTGISASAGPSGWNTIGRTEMVFFDADQHPPALLQPGDQLRLRIERIIRLEHHHHHH | not soluble |
| MSLDQVDKALTPKEKAETGVPFYASNQAGIITAQQTYCYIASFDIQTESRQILQDLFVKWTKFADLTTSGGVLRDVDNDMLPPNDTGEADGLGISNFTVTLGYGPTFFEKDGKDRFGVKAKKPKYLEKIPHMAHDSLDEAYSDGDLCIQVCADDQQVAFHGIRNFIRLASGVAVVRWIEEGFLSAPKNETPRNLFGFKDGTANVDHDSNKGYKDVVWAEKDEPEWMRNGSYLGYRKIQMLIEIWDRSSLLDQEDTFGRKKASGAPYHKKHEHDKVDPSKLPADSHVRLAKDTKQQMHRRAYSYTNGIDKSTGTIDAGLLFICFTQNPAKQFLPMLSIMGKMDKLNEYTVPIGSAMFACQGGLAPGEIFGEKLLEGHHHHHH | soluble |
| MTSVGPGQPQKELIRAQNGTYEVTKPLATGTFGSIYKVKRESDGKFFAVKCEALNMKSSLLRQMSVVLASIHHPSPFFTNIEERGTVPNRFLFIVMPLYGENLYELMMNTNKDRKFSMATGLHLAEQTLAAIRDLHRNGFIHRDIKPSHFCIGREIDGQHHQVYLLDFGLCKRPRFVKKNDEAEEQMRKNAIHYRGVVKYASVHAHQGKNLGYKDDMESWWYMVLEFFLGALPWALLNKESEQDVLHLKRRITAPMVASVWRTTPETTAGFFDLLTIIREPKDVAEFVEYDRIADGIQKLFEKSKSNTQEPPDWDCMTDYKGPGYQQVLMIAPPEVGLKPEMDFGKSDPGAGGESGEQPKKEDVDKKKKKKKKSKKKGKSNNKTTSAEEQKGGKCAPPSRVRDERRETRDETVCEIETRSR | not soluble |
